B1: ATL3 (parent)
chain: HFKKTKKMGGKDFSFRYQQELEEE
B2: TSPAN10 (parent)
chain: EGCGPPLRRWLRANLAASGGYAIA

Variants of: B1
Assay: protein stability index of a GFP-peptide fusion (GPS, HEK-293T) (PSI 1-6); higher = more stable
Settings: c terminus: a fixed tail appended
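Further: lentivirally expressed fusions sorted by FACS into six bins by GFP to DsRed ratio, PSI derived from sequencing read proportions per bin multiplied by bin number.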

Variant	protein stability index
HRKKTKKMGGKDFSFRYQQELEEE [F2R]	2.64
HVKKTKKMGGKDFSFRYQQELEEE [F2V]	2.62
HTKKTKKMGGKDFSFRYQQELEEE [F2T]	1.87
HQKKTKKMGGKDFSFRYQQELEEE [F2Q]	3.05
HAKKTKKMGGKDFSFRYQQELEEE [F2A]	1.48
HHKKTKKMGGKDFSFRYQQELEEE [F2H]	1.62
HCKKTKKMGGKDFSFRYQQELEEE [F2C]	1.8
HPKKTKKMGGKDFSFRYQQELEEE [F2P]	1.26
HYKKTKKMGGKDFSFRYQQELEEE [F2Y]	2.1
HEKKTKKMGGKDFSFRYQQELEEE [F2E]	1.09
HFKKTKKMGRKDFSFRYQQELEEE [G10R]	2.03
HFKKTKKMGDKDFSFRYQQELEEE [G10D]	1.8
HFKKTKKMGYKDFSFRYQQELEEE [G10Y]	1.79
HFKKTKKMGQKDFSFRYQQELEEE [G10Q]	1.86
HFKKTKKMGFKDFSFRYQQELEEE [G10F]	1.82
HFKKTKKMGPKDFSFRYQQELEEE [G10P]	1.3
HFKKTKKMGWKDFSFRYQQELEEE [G10W]	1.7
HFKKTKKMGLKDFSFRYQQELEEE [G10L]	2.07
HFKKTKKMGGKIFSFRYQQELEEE [D12I]	2.43
HFKKTKKMGGKTFSFRYQQELEEE [D12T]	2.24
HFKKTKKMGGKPFSFRYQQELEEE [D12P]	1.99
HFKKTKKMGGTDFSFRYQQELEEE [K11T]	2.22
HFKKTKKMGGHDFSFRYQQELEEE [K11H]	2.11
HFKKTKKMGGVDFSFRYQQELEEE [K11V]	2.39

Variant	protein stability index
HFKKTKKMGGWDFSFRYQQELEEE [K11W]	1.78
HFKKTKKMGGYDFSFRYQQELEEE [K11Y]	1.26
HFKKTKKMGGIDFSFRYQQELEEE [K11I]	2.27
HFKKTKKMGGKDFSFMYQQELEEE [R16M]	2.84
HFKKTKKMGGKDFSFKYQQELEEE [R16K]	2.51
HFKKTKKMGGKDFSFWYQQELEEE [R16W]	2.11
HFKKTKKMGGKDFSFFYQQELEEE [R16F]	3.07
HFKKTKKMGGKDFSFDYQQELEEE [R16D]	5.02
HFKKTKKMGGKDFSFEYQQELEEE [R16E]	5.18
HFKKTKKMGGKDFSFYYQQELEEE [R16Y]	2.18
HFKKTKKMGGKDFSFNYQQELEEE [R16N]	3.69
HFKKTKKMGGKDFSFLYQQELEEE [R16L]	2.45
HFKKTKKMGGKDFSFQYQQELEEE [R16Q]	3.08
HFKKTKKMGGKDFSFSYQQELEEE [R16S]	4.39
HFKKTKKMGGKDFSFRYYQELEEE [Q18Y]	1.81
HFKKTKKMGGKDFSFRYHQELEEE [Q18H]	2.34
HFKKTKKMGGKDFSFRYAQELEEE [Q18A]	2
HFKKTKKMGGKDFSFRYPQELEEE [Q18P]	4.2
HFKWTKKMGGKDFSFRYQQELEEE [K4W]	1.61
HFKYTKKMGGKDFSFRYQQELEEE [K4Y]	1.23
HFKSTKKMGGKDFSFRYQQELEEE [K4S]	3.01
HFKQTKKMGGKDFSFRYQQELEEE [K4Q]	1.75
HFKVTKKMGGKDFSFRYQQELEEE [K4V]	1.62
HFKCTKKMGGKDFSFRYQQELEEE [K4C]	2.55

Variant	protein stability index
HFKTTKKMGGKDFSFRYQQELEEE [K4T]	2.1
HFKMTKKMGGKDFSFRYQQELEEE [K4M]	2.26
HFKDTKKMGGKDFSFRYQQELEEE [K4D]	3.67
HFKPTKKMGGKDFSFRYQQELEEE [K4P]	1.82
HFKKTKKMGGKDFSFRYQWELEEE [Q19W]	2.03
HFKKTKKMGGKDFSFRYQCELEEE [Q19C]	1.57
HFKKTKKMGGKDFSFRYQKELEEE [Q19K]	1.89
HFKKTKKMGGKDFSFRYQFELEEE [Q19F]	1.71
HFKKTKKMGGKDFSFRYQAELEEE [Q19A]	3.52
HFKKTVKMGGKDFSFRYQQELEEE [K6V]	2.46
HFKKTPKMGGKDFSFRYQQELEEE [K6P]	1.2
HFKKTTKMGGKDFSFRYQQELEEE [K6T]	1.96
HFKKTEKMGGKDFSFRYQQELEEE [K6E]	2.1
HFKKTHKMGGKDFSFRYQQELEEE [K6H]	1.52
HFKKTAKMGGKDFSFRYQQELEEE [K6A]	2.4
HFKKTRKMGGKDFSFRYQQELEEE [K6R]	1.99
HFKKTKKQGGKDFSFRYQQELEEE [M8Q]	2.21
HFKKTKKHGGKDFSFRYQQELEEE [M8H]	2.29
PFKKTKKMGGKDFSFRYQQELEEE [H1P]	3.17
WFKKTKKMGGKDFSFRYQQELEEE [H1W]	2.22
MFKKTKKMGGKDFSFRYQQELEEE [H1M]	2.32
NFKKTKKMGGKDFSFRYQQELEEE [H1N]	2.03
SFKKTKKMGGKDFSFRYQQELEEE [H1S]	1.73
FFKKTKKMGGKDFSFRYQQELEEE [H1F]	1.88

Variant	protein stability index
LFKKTKKMGGKDFSFRYQQELEEE [H1L]	1.65
TFKKTKKMGGKDFSFRYQQELEEE [H1T]	3.89
HFKKTKKMGGKDFLFRYQQELEEE [S14L]	2.35
HFKKTKKMGGKDFCFRYQQELEEE [S14C]	1.08
HFKKTKKMGGKDFTFRYQQELEEE [S14T]	3.24
HFKKTKKMGGKDFYFRYQQELEEE [S14Y]	3.61
HFKKTKKMGGKDFHFRYQQELEEE [S14H]	4.29
HFKKTKKMGGKDFQFRYQQELEEE [S14Q]	1.93
HFKKTKKMGGKDFKFRYQQELEEE [S14K]	3.31
HFKKTKKMGGKDFGFRYQQELEEE [S14G]	2.54
HFKKTKKMGGKDFFFRYQQELEEE [S14F]	3.85
HFHKTKKMGGKDFSFRYQQELEEE [K3H]	1.73
HFEKTKKMGGKDFSFRYQQELEEE [K3E]	1.43
HFTKTKKMGGKDFSFRYQQELEEE [K3T]	1.04
HFSKTKKMGGKDFSFRYQQELEEE [K3S]	1.79
HFYKTKKMGGKDFSFRYQQELEEE [K3Y]	2.75
HFAKTKKMGGKDFSFRYQQELEEE [K3A]	2.06
HFWKTKKMGGKDFSFRYQQELEEE [K3W]	1.02
HFGKTKKMGGKDFSFRYQQELEEE [K3G]	1.86
HFKKTKKMGGKDESFRYQQELEEE [F13E]	5.36
HFKKTKKMGGKDPSFRYQQELEEE [F13P]	4.29
HFKKTKKMGGKDVSFRYQQELEEE [F13V]	4.96
HFKKTKKMGGKDMSFRYQQELEEE [F13M]	3.76
HFKKTKKMGGKDHSFRYQQELEEE [F13H]	2.79

Variant	protein stability index
HFKKTKKMGGKDNSFRYQQELEEE [F13N]	5.05
HFKKTKKMGGKDISFRYQQELEEE [F13I]	4.91
HFKKTKKMGGKDRSFRYQQELEEE [F13R]	3.94
HFKKTKKMGGKDFSFRYQQELEEK [E24K]	3.43
HFKKTKKMGGKDFSFRYQQELEEW [E24W]	1.9
HFKKTKKMGGKDFSFRYQQELEEG [E24G]	2.63
HFKKTKKMGGKDFSFRYQQELEEH [E24H]	3.13
HFKKTKMMGGKDFSFRYQQELEEE [K7M]	2.88
HFKKTKNMGGKDFSFRYQQELEEE [K7N]	2.11
HFKKTKIMGGKDFSFRYQQELEEE [K7I]	2.9
HFKKTKRMGGKDFSFRYQQELEEE [K7R]	1.65
HFKKTKSMGGKDFSFRYQQELEEE [K7S]	2.04
HFKKTKKMGGKDFSFRYQQEIEEE [L21I]	2.98
HFKKTKKMGGKDFSFRYQQEEEEE [L21E]	3.19
HFKKTKKMGGKDFSFRYQQEFEEE [L21F]	1.53
HFKKTKKMGGKDFSFRYQQESEEE [L21S]	4
HFKKTKKMGGKDFSFRYQQEVEEE [L21V]	2.72
HFKKTKKMGGKDFSFRYQQETEEE [L21T]	4.24
HFKKTKKMGGKDFSFRYQQEPEEE [L21P]	4.57
HFKKTKKMGGKDFSFRYQQEHEEE [L21H]	2.44
HFKKTKKMGGKDFSFRYQQRLEEE [E20R]	3.96
HFKKTKKMGGKDFSFRYQQPLEEE [E20P]	3.22
HFKKTKKMGGKDFSFRYQQDLEEE [E20D]	2.25
HFKKTKKMGGKDFSFRYQQALEEE [E20A]	3.31

Variant	protein stability index
HFKKTKKMGGKDFSFRYQQHLEEE [E20H]	3.98
HFKKTKKMGGKDFSFRYQQSLEEE [E20S]	3.94
HFKKTKKMGGKDFSFRYQQNLEEE [E20N]	3.16
HFKKPKKMGGKDFSFRYQQELEEE [T5P]	1.78
HFKKNKKMGGKDFSFRYQQELEEE [T5N]	2.58
HFKKLKKMGGKDFSFRYQQELEEE [T5L]	2.53
HFKKWKKMGGKDFSFRYQQELEEE [T5W]	3.29
HFKKHKKMGGKDFSFRYQQELEEE [T5H]	1.83
HFKKRKKMGGKDFSFRYQQELEEE [T5R]	1.31
HFKKTKKMGGKDFSFRKQQELEEE [Y17K]	4.89
HFKKTKKMGGKDFSFRDQQELEEE [Y17D]	5.61
HFKKTKKMGGKDFSFRMQQELEEE [Y17M]	4.21
HFKKTKKMGGKDFSFRSQQELEEE [Y17S]	3.14
HFKKTKKMGGKDFSFRLQQELEEE [Y17L]	2.1
HFKKTKKMGGKDFSFRYQQELKEE [E22K]	3.18
HFKKTKKMGGKDFSFRYQQELGEE [E22G]	2.5
HFKKTKKMGGKDFSFRYQQELNEE [E22N]	1.72
HFKKTKKMGGKDFSFRYQQELIEE [E22I]	1.79
HFKKTKKMGGKDFSFRYQQELVEE [E22V]	2.41
HFKKTKKMGGKDFSFRYQQELCEE [E22C]	3.15
HFKKTKKMYGKDFSFRYQQELEEE [G9Y]	1.74
HFKKTKKMEGKDFSFRYQQELEEE [G9E]	1.77
HFKKTKKMCGKDFSFRYQQELEEE [G9C]	2.61
HFKKTKKMAGKDFSFRYQQELEEE [G9A]	1.41

Variant	protein stability index
HFKKTKKMMGKDFSFRYQQELEEE [G9M]	1.28
HFKKTKKMSGKDFSFRYQQELEEE [G9S]	1.75
HFKKTKKMLGKDFSFRYQQELEEE [G9L]	2.26
HFKKTKKMQGKDFSFRYQQELEEE [G9Q]	1.96
HFKKTKKMIGKDFSFRYQQELEEE [G9I]	2.48
HFKKTKKMTGKDFSFRYQQELEEE [G9T]	2.11
HFKKTKKMWGKDFSFRYQQELEEE [G9W]	1.88
HFKKTKKMGGKDFSKRYQQELEEE [F15K]	3.04
HFKKTKKMGGKDFSYRYQQELEEE [F15Y]	1.54
HFKKTKKMGGKDFSMRYQQELEEE [F15M]	2.39
HFKKTKKMGGKDFSPRYQQELEEE [F15P]	4.31
HFKKTKKMGGKDFSGRYQQELEEE [F15G]	2.22
HFKKTKKMGGKDFSTRYQQELEEE [F15T]	2.24
HFKKTKKMGGKDFSFRYQQELETE [E23T]	2.55
HFKKTKKMGGKDFSFRYQQELEFE [E23F]	2.27
HFKKTKKMGGKDFSFRYQQELEME [E23M]	2.61
HFKKTKKMGGKDFSFRYQQELEYE [E23Y]	1.71
HFKKTKKMGGKDFSFRYQQELEAE [E23A]	2.2

Variants of: B2
Assay: as above
Settings: c terminus: a fixed tail appended

Variant	protein stability index
EGCGPPLRRWLRANLAASGGYAWA [I23W]	1.59
EGCGPPLRRWLRANLAASGGYASA [I23S]	2.63
EGCGPPLRRWLRANLAASGGYAYA [I23Y]	1.73
EGCGPPLRRWLRANLAASGGYAPA [I23P]	2.45
EGCGPPLRRWLRANLAASGGYATA [I23T]	2.53
EGCGPPLRRWLRANLAASGGYARA [I23R]	2.6
EGCGPPLRRWLRANLAASGGYAVA [I23V]	2.11
EGCGPPLRRWLRANLAASGGYAQA [I23Q]	2.48
EGCGPPLRRWLRANLAASGGYAIF [A24F]	1.48
EGCGPPLRRWLRANLAASGGYAIH [A24H]	1.68
EGCGPPLRRWLRANLAASGGYAIY [A24Y]	1.16
EGCGPPLRRWLRANLAASGGYAIT [A24T]	2
EGCGPPLRRWLRANLAASGGYAIM [A24M]	1.93
EGCGPPLRRWLRANLAASGGYAIL [A24L]	2.81
EGCGPPLRRWLRANLAASGGYAIN [A24N]	2.27
EGCGPPLRRWLRANLAASGGYAIG [A24G]	1.65
EGCGPPLRRWLRANLAASGGYAIC [A24C]	2.02
EGCGPPLRRWLRANLAASGGYAIW [A24W]	2.25
EGCGPPLRRWLRANLAASGGYAIK [A24K]	2.15
EGCGPPLRRWLRANLAASGGYAIE [A24E]	2.92
EGCGPPLRRWLRANLAASGGYAID [A24D]	2.42
EGCGPPLRRWLRANLAASGGYAIV [A24V]	1.67
EGCGPPLRRWLRANLAASGGYAIQ [A24Q]	2.6
EGCGPPLRRWLRANLAASGGYAIS [A24S]	1.98
EGCGPPLRRWLRANLAASGGYAII [A24I]	2.22
EGCGPPLRRWLRANLAASGGYAIR [A24R]	2.12

— the supplement of paper PMC10567573
